{
  "source": "patent US20050196753A1",
  "about": "“Human coactivator-associated arginine methyltransferase 1 (hCARM1)” (priority 2002, published 2005)",
  "key": {"[1]": {"system": "ER dependent promoter reporter in T47D cells", "assay": "ER dependent luciferase reporter assay in transfected T47D cells", "format": "cell-based, human", "conditions": "hCARM1 co-transfected with GRIP-1 and ER, compared to GRIP-1 and ER alone", "description": "Transfection protocol: Cells were plated in 12 well-dishes and allowed to adhere and grow overnight such that they were 80% confluent at the time of transfection. Tranfections were performed in triplicate using Lipofectamine 2000 (Gibco) and OptiMEM media. Total amount of DNA transfected was held constant within experiments. Six hrs. post transfection the Lipofectamine-DNA mix was removed and replaced with fresh media containing 10% serum. Hormone (dihydrotestosterone or estradiol) was added at this time and reporter activation measured after 24 hr.\nMouse CARM1 has been implicated as a coactivator of the androgen and estrogen receptor mediated signaling pathways along with the well-known steroid coactivator GRIP-1. The contribution, if any, of the human clone to these pathways was investigated. […] Thus, antagonizing endogenous CARM1 is deleterious to hormone dependent activation by endogeous ER."}, "Histone H3": {"system": "Histone H3", "assay": "Methylation assay: methylating activity of purified hCARM1", "format": "biochemical", "conditions": "increasing amounts of purified enzyme, constant recombinant Histone H3 (FIG. 2)", "description": "Methylation assay protocol: Reactions were performed in IX methylation buffer containing 20 mM Tris.HCl, pH 8.0, 200 mM NaCl and 0.4 mM EDTA. Reactions were assembled with 2.5 ug of Histone H3 and increasing amounts of hCARM1 (0.25 ug, 0.5 ug, 1.25 ug, 2.5 ug, 3.75 ug, 5 ug, or 7.5 ug). A mock reaction where hCARM1 was omitted was used as the negative control. Reactions were incubated at 30° C. for 1 hr. prior to loading on a 10-20% gradient SDS-PAGE. The gel was fixed, dried and exposed to film.\nA methylation reaction was performed in order to evaluate whether the cloned full-length hCARM1 had methylating activity. Mouse CARM1 has been previously shown to specifically methylate Histone H3 in vitro and in vivo."}},
  "data": [
    {"molecule": "hCARM1: cloned full-length human CARM1, produced in and purified from baculovirus infected insect cells; transfected as cDNA in cell assays (protein, UniProt Q86X55 1-608, looked up, full-length, cloned full-length human CARM1, produced in and purified from baculovirus infected insect cells; transfected as cDNA in cell assays) MAAAAAAVGPGAGGAGSAVPGGAGPCATVSVFPGARLLTIGDANGEIQRHAEQQALRLEVRAGPDSAGIALYSHEDVCVFKCSVSRETECSRVGKQSFIITLGCNSVLIQFATPNDFCSFYNILKTCRGHTLERSVFSERTEESSAVQYFQFYGYLSQQQNMMQDYVRTGTYQRAILQNHTDFKDKIVLDVGCGSGILSFFAAQAGARKIYAVEASTMAQHAEVLVKSNNLTDRIVVIPGKVEEVSLPEQVDIIISEPMGYMLFNERMLESYLHAKKYLKPSGNMFPTIGDVHLAPFTDEQLYMEQFTKANFWYQPSFHGVDLSALRGAAVDEYFRQPVVDTFDIRILMAKSVKYTVNFLEAKEGDLHRIEIPFKFHMLHSGLVHGLAFWFDVAFIGSIMTVWLSTAPTEPLTHWYQVRCLFQSPLFAKAGDTLSGTCLLIANKRQSYDISIVAQVDQTGSKSSNLLDLKNPFFRYTGTTPSPPPGSHYTSPSENMWNTGSTYNLSSGMAVAGMPTAYDLSSVIASGSSVGHNNLIPLANTGIVNHTHSRMGSIMSTGIVQGSSGAQGSGGGSTSAHYAVNSQFTMGGPAISMASPMSIPTNTMHYGS", "values": [
      {"measurement": "estradiol mediated induction of ER dependent luciferase reporter", "setting": "[1]", "result": "concentration dependent increase"},
      {"measurement": "methylation of Histone H3 by hCARM1", "setting": "Histone H3", "result": "methylates Histone H3 efficiently"}
    ]}
  ]
}
